Measured values taken from the supplement of paper PMC6757056.
± gives the standard deviation of the averaged measurements.

B1: library; a variant is named by its letters at N, in order (parent)
chain: GCUGUCACCGGUGUAUUACCCUAGUGGUCGACCGGUCUGAUGAGUCUNNNNNNAGACGAAACAGC

Legend:
[1] = variants of: B1; test: FACS-Seq fitted mean relative fluorescence mCherry/BFP without ligand (log10 relative fluorescence); ligand: hypoxanthine (xanthine aptamer); higher = higher reporter protein expression; details: HEK293T, ligand present: no
Procedure, shortened: (§1)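 An mCherry reporter containing the ribozyme switch and an EF1α-BFP marker were introduced by lentivirus into HEK293T libraries. Cells were enriched, incubated 48 h with or without ligand, sorted into 6 bins by mCherry/BFP, and bin genomic DNA was PCR-amplified, barcoded and sequenced on MiSeq. Fluorescence represents the normalized fitted normal mean of the bin counts. Fitting was done on log10(mCherry/BFP), scaling to five spiked-in control ribozymes.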

[2] = variants of: B1; test: normalized RNA/DNA level with ligand (relative to sTRSVctl = 100) (log10 (% of sTRSVctl)); ligand: hypoxanthine (xanthine aptamer); higher = less ribozyme self-cleavage, higher mRNA level; details: ligand concentration (+) RNA-Seq: 5 mM, HEK293T, reporter: mCherry (pCS4076), ligand present: yes
Procedure, shortened: (§2)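 Ribozyme switch library plasmids linked to reporters were introduced into HEK293T cells at 4 µg per 6-well well, with ligand, if any, added 1 h before. Total RNA was extracted with EDTA 72 h later, reverse-transcribed, amplified, barcoded and sequenced. RNA level was computed from RNA over DNA reads relative to a spiked-in non-cleaving sequence or the top sequences, then scaled and log-transformed. The top set was 25 sequences, values were ×100 and log10, and the cutoff was ≥100 DNA reads.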

[3] = variants of: B1; test: normalized RNA/DNA level without ligand (relative to sTRSVctl = 100) (log10 (% of sTRSVctl)); ligand: hypoxanthine (xanthine aptamer); higher = less ribozyme self-cleavage, higher mRNA level; details: HEK293T, reporter: mCherry (pCS4076), ligand present: no
Procedure, shortened: as §2

[4] = variants of: B1; test: FACS-Seq fitted mean relative fluorescence mCherry/BFP with ligand (log10 relative fluorescence); ligand: hypoxanthine (xanthine aptamer); ligand concentration (+) FACS-Seq: 5 mM; higher = higher reporter protein expression; details: HEK293T, ligand present: yes
Procedure, shortened: as §1

With GCUGUCACCGGUGUAUUACCCUAGUGGUCGACCGGUCUGAUGAGUCUCAGCUCAGACGAAACAGC [CAGCUC] the “FACS-Seq fitted mean (log10)” value [1] was 0.219 ± 0.029, the “normalized RNA/DNA level with ligand (log10)” value [2] was 2.03 ± 0.022 and the “normalized RNA/DNA level without ligand (log10)” value [3] was 1.972 ± 0.014. The “FACS-Seq fitted mean (log10)” value [4] was 0.115 ± 0.03.

With GCUGUCACCGGUGUAUUACCCUAGUGGUCGACCGGUCUGAUGAGUCUAAGCGUAGACGAAACAGC [AAGCGU] the “FACS-Seq fitted mean (log10)” value [1] was 0.27 ± 0.0081, the “normalized RNA/DNA level with ligand (log10)” value [2] was 1.89 ± 0.05 and the “normalized RNA/DNA level without ligand (log10)” value [3] was 1.62 ± 0.035. For the same variant, the “FACS-Seq fitted mean (log10)” value [4] was 0.579 ± 0.013.

GCUGUCACCGGUGUAUUACCCUAGUGGUCGACCGGUCUGAUGAGUCUUAGGCCAGACGAAACAGC [UAGGCC] was tested, and the “FACS-Seq fitted mean (log10)” value [1] was 0.378 ± 0.066, the “normalized RNA/DNA level with ligand (log10)” value [2] was 2.002 ± 0.0047 and the “normalized RNA/DNA level without ligand (log10)” value [3] was 1.954 ± 0.0025. The “FACS-Seq fitted mean (log10)” value [4] was 0.564 ± 0.03.

In the case of GCUGUCACCGGUGUAUUACCCUAGUGGUCGACCGGUCUGAUGAGUCUAAGGCGAGACGAAACAGC [AAGGCG], the “FACS-Seq fitted mean (log10)” value [1] is reported as 0.0654 ± 0.029, the “normalized RNA/DNA level with ligand (log10)” value [2] is reported as 1.77 ± 0.08 and the “normalized RNA/DNA level without ligand (log10)” value [3] is reported as 1.24 ± 0.032. For the same variant, the “FACS-Seq fitted mean (log10)” value [4] was 0.526 ± 0.018.

For GCUGUCACCGGUGUAUUACCCUAGUGGUCGACCGGUCUGAUGAGUCUGAGCUGAGACGAAACAGC [GAGCUG], the “FACS-Seq fitted mean (log10)” value [1] was 0.345 ± 0.0035, the “normalized RNA/DNA level with ligand (log10)” value [2] was 1.86 ± 0.03 and the “normalized RNA/DNA level without ligand (log10)” value [3] was 1.31 ± 0.028. For the same variant, the “FACS-Seq fitted mean (log10)” value [4] was 0.75 ± 0.083.

In the case of GCUGUCACCGGUGUAUUACCCUAGUGGUCGACCGGUCUGAUGAGUCUGAGCUAAGACGAAACAGC [GAGCUA], the “FACS-Seq fitted mean (log10)” value [1] is reported as 0.221 ± 0.077, the “normalized RNA/DNA level with ligand (log10)” value [2] is reported as 1.925 ± 0.018 and the “normalized RNA/DNA level without ligand (log10)” value [3] is reported as 1.722 ± 0.004. For the same variant, the “FACS-Seq fitted mean (log10)” value [4] was 0.293 ± 0.039.

GCUGUCACCGGUGUAUUACCCUAGUGGUCGACCGGUCUGAUGAGUCUGAGGAAAGACGAAACAGC [GAGGAA] was tested, and the “FACS-Seq fitted mean (log10)” value [1] was 0.318 ± 0.036, the “normalized RNA/DNA level with ligand (log10)” value [2] was 1.88 ± 0.032 and the “normalized RNA/DNA level without ligand (log10)” value [3] was 1.54 ± 0.026. The “FACS-Seq fitted mean (log10)” value [4] was 0.581 ± 0.073.

GCUGUCACCGGUGUAUUACCCUAGUGGUCGACCGGUCUGAUGAGUCUGAGGAGAGACGAAACAGC [GAGGAG] was tested, and the “FACS-Seq fitted mean (log10)” value [1] was 0.288 ± 0.028, the “normalized RNA/DNA level with ligand (log10)” value [2] was 1.65 ± 0.042 and the “normalized RNA/DNA level without ligand (log10)” value [3] was 1.17 ± 0.068. The “FACS-Seq fitted mean (log10)” value [4] was 0.643 ± 0.013.

With GCUGUCACCGGUGUAUUACCCUAGUGGUCGACCGGUCUGAUGAGUCUGAGGACAGACGAAACAGC [GAGGAC] the “FACS-Seq fitted mean (log10)” value [1] was 0.178 ± 0.038, the “normalized RNA/DNA level with ligand (log10)” value [2] was 1.91 ± 0.041 and the “normalized RNA/DNA level without ligand (log10)” value [3] was 1.6478 ± 0.00029. The “FACS-Seq fitted mean (log10)” value [4] was 0.308 ± 0.1.

With GCUGUCACCGGUGUAUUACCCUAGUGGUCGACCGGUCUGAUGAGUCUUAGGAAAGACGAAACAGC [UAGGAA] the “FACS-Seq fitted mean (log10)” value [1] was 0.348 ± 0.033, the “normalized RNA/DNA level with ligand (log10)” value [2] was 1.88 ± 0.031 and the “normalized RNA/DNA level without ligand (log10)” value [3] was 1.64 ± 0.018. The “FACS-Seq fitted mean (log10)” value [4] was 0.483 ± 0.056.

With GCUGUCACCGGUGUAUUACCCUAGUGGUCGACCGGUCUGAUGAGUCUUAGGAUAGACGAAACAGC [UAGGAU] the “FACS-Seq fitted mean (log10)” value [1] was 0.683 ± 0.097, the “normalized RNA/DNA level with ligand (log10)” value [2] was 1.94 ± 0.027 and the “normalized RNA/DNA level without ligand (log10)” value [3] was 1.66 ± 0.021. The “FACS-Seq fitted mean (log10)” value [4] was 0.628 ± 0.013.

In the case of GCUGUCACCGGUGUAUUACCCUAGUGGUCGACCGGUCUGAUGAGUCUCAGGAAAGACGAAACAGC [CAGGAA], the “FACS-Seq fitted mean (log10)” value [1] is reported as 0.2364 ± 0.0018, the “normalized RNA/DNA level with ligand (log10)” value [2] is reported as 1.958 ± 0.014 and the “normalized RNA/DNA level without ligand (log10)” value [3] is reported as 1.58 ± 0.074. The “FACS-Seq fitted mean (log10)” value [4] was 0.529 ± 0.019.

In the case of GCUGUCACCGGUGUAUUACCCUAGUGGUCGACCGGUCUGAUGAGUCUCAGGAUAGACGAAACAGC [CAGGAU], the “FACS-Seq fitted mean (log10)” value [1] is reported as 0.34323 ± 0.00015, the “normalized RNA/DNA level with ligand (log10)” value [2] is reported as 1.947 ± 0.013 and the “normalized RNA/DNA level without ligand (log10)” value [3] is reported as 1.682 ± 0.015. The “FACS-Seq fitted mean (log10)” value [4] was 0.512 ± 0.028.

With GCUGUCACCGGUGUAUUACCCUAGUGGUCGACCGGUCUGAUGAGUCUAAGGAAAGACGAAACAGC [AAGGAA] the “FACS-Seq fitted mean (log10)” value [1] was 0.159 ± 0.16, the “normalized RNA/DNA level with ligand (log10)” value [2] was 1.869 ± 0.015 and the “normalized RNA/DNA level without ligand (log10)” value [3] was 1.53 ± 0.0077. The “FACS-Seq fitted mean (log10)” value [4] was 0.411 ± 0.07.

GCUGUCACCGGUGUAUUACCCUAGUGGUCGACCGGUCUGAUGAGUCUAAGGAUAGACGAAACAGC [AAGGAU] was tested, and the “FACS-Seq fitted mean (log10)” value [1] was 0.678 ± 0.038, the “normalized RNA/DNA level with ligand (log10)” value [2] was 1.91 ± 0.037 and the “normalized RNA/DNA level without ligand (log10)” value [3] was 1.653 ± 0.013. For the same variant, the “FACS-Seq fitted mean (log10)” value [4] was 0.732 ± 0.042.

In the case of GCUGUCACCGGUGUAUUACCCUAGUGGUCGACCGGUCUGAUGAGUCUAAGGAGAGACGAAACAGC [AAGGAG], the “FACS-Seq fitted mean (log10)” value [1] is reported as 0.245 ± 0.003, the “normalized RNA/DNA level with ligand (log10)” value [2] is reported as 1.62 ± 0.068 and the “normalized RNA/DNA level without ligand (log10)” value [3] is reported as 1.12 ± 0.047. For the same variant, the “FACS-Seq fitted mean (log10)” value [4] was 0.589 ± 0.11.

In the case of GCUGUCACCGGUGUAUUACCCUAGUGGUCGACCGGUCUGAUGAGUCUAAGCUGAGACGAAACAGC [AAGCUG], the “FACS-Seq fitted mean (log10)” value [1] is reported as 0.17 ± 0.068, the “normalized RNA/DNA level with ligand (log10)” value [2] is reported as 1.72 ± 0.032 and the “normalized RNA/DNA level without ligand (log10)” value [3] is reported as 1.23 ± 0.054. The “FACS-Seq fitted mean (log10)” value [4] was 0.481 ± 0.046.

For GCUGUCACCGGUGUAUUACCCUAGUGGUCGACCGGUCUGAUGAGUCUCAGCGUAGACGAAACAGC [CAGCGU], the “FACS-Seq fitted mean (log10)” value [1] was -0.166 ± 0.056, the “normalized RNA/DNA level with ligand (log10)” value [2] was 1.967 ± 0.017 and the “normalized RNA/DNA level without ligand (log10)” value [3] was 1.89 ± 0.046. For the same variant, the “FACS-Seq fitted mean (log10)” value [4] was -0.185 ± 0.11.

GCUGUCACCGGUGUAUUACCCUAGUGGUCGACCGGUCUGAUGAGUCUGAGGCAAGACGAAACAGC [GAGGCA] was tested, and the “FACS-Seq fitted mean (log10)” value [1] was 0.306 ± 0.0093, the “normalized RNA/DNA level with ligand (log10)” value [2] was 1.937 ± 0.018 and the “normalized RNA/DNA level without ligand (log10)” value [3] was 1.9192 ± 0.0019. For the same variant, the “FACS-Seq fitted mean (log10)” value [4] was 0.427 ± 0.021.

With GCUGUCACCGGUGUAUUACCCUAGUGGUCGACCGGUCUGAUGAGUCUGAGGCUAGACGAAACAGC [GAGGCU] the “FACS-Seq fitted mean (log10)” value [1] was 0.751 ± 0.037, the “normalized RNA/DNA level with ligand (log10)” value [2] was 2 ± 0.021 and the “normalized RNA/DNA level without ligand (log10)” value [3] was 1.98 ± 0.036. For the same variant, the “FACS-Seq fitted mean (log10)” value [4] was 0.721 ± 0.025.

With GCUGUCACCGGUGUAUUACCCUAGUGGUCGACCGGUCUGAUGAGUCUGAGGCGAGACGAAACAGC [GAGGCG] the “FACS-Seq fitted mean (log10)” value [1] was 0.189 ± 0.012, the “normalized RNA/DNA level with ligand (log10)” value [2] was 1.95 ± 0.012 and the “normalized RNA/DNA level without ligand (log10)” value [3] was 1.68 ± 0.088. For the same variant, the “FACS-Seq fitted mean (log10)” value [4] was 0.597 ± 0.047.
